# Measurements: US20230272071A1 (ARIZONA BOARD OF REGENTS ON BEHALF OF THE UNIVERSITY OF …, published 2023)
# T1: human CD19 on Ramos cells (B-cell lymphoma) (human, UniProt P15391 20-556)
# T1 construct: whole, on cells; also called hCD19
# T1 sequence (looked up): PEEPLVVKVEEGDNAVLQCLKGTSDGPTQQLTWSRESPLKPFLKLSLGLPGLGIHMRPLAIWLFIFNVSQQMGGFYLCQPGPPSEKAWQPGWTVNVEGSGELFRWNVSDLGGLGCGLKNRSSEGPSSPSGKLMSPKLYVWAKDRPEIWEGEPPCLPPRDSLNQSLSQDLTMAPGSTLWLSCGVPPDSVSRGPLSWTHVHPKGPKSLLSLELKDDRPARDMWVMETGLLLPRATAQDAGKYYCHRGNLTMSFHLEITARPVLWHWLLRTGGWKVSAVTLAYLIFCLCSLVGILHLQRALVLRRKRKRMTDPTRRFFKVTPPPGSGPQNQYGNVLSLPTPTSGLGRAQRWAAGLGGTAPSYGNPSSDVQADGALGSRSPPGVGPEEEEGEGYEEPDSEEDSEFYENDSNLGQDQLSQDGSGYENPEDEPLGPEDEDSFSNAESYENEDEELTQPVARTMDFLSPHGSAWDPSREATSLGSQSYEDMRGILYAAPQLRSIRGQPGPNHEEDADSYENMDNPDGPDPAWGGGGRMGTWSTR
# T2: recombinant huCD19 (BioLegend) (human, UniProt P15391 20-291, limits assumed)
# T2 construct: Bought reagent; also called rhuCD19
# T2 sequence (looked up): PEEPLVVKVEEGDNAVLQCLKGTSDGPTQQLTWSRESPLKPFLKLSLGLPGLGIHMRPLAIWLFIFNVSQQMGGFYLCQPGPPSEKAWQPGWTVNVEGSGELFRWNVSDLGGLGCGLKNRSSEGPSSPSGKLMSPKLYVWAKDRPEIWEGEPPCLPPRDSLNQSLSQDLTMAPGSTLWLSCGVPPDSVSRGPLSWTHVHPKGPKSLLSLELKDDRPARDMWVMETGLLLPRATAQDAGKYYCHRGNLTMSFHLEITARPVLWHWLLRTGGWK
# B1: mMHCII-Anti-hCD19 BMiMS (MCC:I-E^k fused to anti-hCD19 AltIg Fv of mAb B43, opened C-C' loop) (other)
# MHC II alpha: CIKEEHTIIQAEFYLLPDKRGEFMFDFDGDEIFHVDIEKSETIWRLEEFAKFASFEAQGALANIAVDKANLDVMKERSNNTPDANVAPEVTVLSRSPVNLGEPNILICFIDKFSPPVVNVTWLRNGRPVTEGVSETVFLPRDDHLFRKFHYLTFLPSTDDFYDCEVDHWGLEEPLRKHWEFEEKTLLPETKESRGGLEVLFQGPEFGGSTTAPSAQLEKELQALEKENAQLEWELQALEKELAQAAAGQPPKLLIYDASNLVSGIPPRFSGSGSGTDFTLNIHPVEKVDAATYHCQQSTEDPWTFGGGTKLEIKSPGSGGGGSGGGGSGGGGSSGELVLTQSPASLAVSLGQRATISCKASQSVDYDGDSYLNWYQQIGGGGSHHHHHH
# MHC II beta: CADPSGSANERADLIAYLKQATKEFRSGGGGSLVPRGSGGGGSVDRPWFLEYCKSECHFYNGTQRVRLLVRYFYNLEENLRFDSDVGEFRAVTELGRPDAENWNSQPEFLEQKRAEVDTVCRHNYEIFDNFLVPRRVEPTVTVYPTKTQPLEHHNLLVCSVSDFYPGNIEVRWFRNGKEEKTGIVSTGLVRNGDWTFQTLVMLETVPQSGEVYTCQVEHPSLTDPVTVEWKAQSTSAQNKSRGGLEVLFQGPEFGGSTTAPSAQLKKKLQALKKKNAQLKWKLQALKKKLAQAAAGQGLEWIGQIWPGDGDTNYNGKFKGKATLTADESSSTAYMQLSSLRSEDSAVYSCARRETTTVGRYYYAMDYWGQGTTVTSPGSGGGGSGGGGSGGGGSSGQVQLLESGAELVRPGSSVKISCKASGYAFSSYWMNWVKQRGGGGSHHHHHH
# notes: Heterodimer secreted by M12 cells, used as concentrated culture supernatant; also called pMHCII-BMiMS; pMHCII-based BMiMS
# Assays:
# [1] = target: T1, human CD19 on Ramos cells (B-cell …); experiment: flow cytometry of Ramos cells incubated with M12 supernatant, detected with PE anti-mouse I-A/I-E
# Protocol: Ramos cells were incubated with culture media (negative control) or supernatant from M12 cells expressing BMiMS, then stained with fluorophore conjugated antibodies against the indicated immune molecules and analyzed by flow cytometry.
# M12 cells were cultured to confluency (1-2×10⁶ cells/mL) in complete RPMI (5% FCS) and the supernatant was harvested for analysis as described above. Ramos cells were harvested, washed, and 1×10⁶ were incubated with media (negative control) or 0.250 mL of concentrated (50 mL down to 0.250 mL in Amicon Ultra 15 10 kDa (Millipore)) M12 cell culture supernatant at 4° C. for 1 hour. After washing, cells were stained with PE conjugated anti-mouse I-A/I-E (clone M5/14. 15.2, eBiosciences), PE conjugated anti-mCD80 (clone 16-10A1, BioLegend), anti-mCD86 (clone GL-1, BioLegend) or anti-mlCAM-1 (clone YN1/1.7.4, eBioscience) and analyzed by flow cytometry.
# [2] = target: T2, recombinant huCD19 (BioLegend); experiment: plate coated with 4 ug/ml recombinant huCD19, BMiMS supernatant, washed; retention read through IL-2 of 5c.c7 T cells
# Protocol: An experiment was designed to determine whether BMiMS can bind huCD19 and stimulate CD4+ T cells. See FIG. 9A. pMHCII-based BMiMS were made with the moth cytochrome c […] peptide (MCC) tethered with a flexible linker to I-E^k (MCC:I-E^k) which is recognized by the 5c.c7 TCR. For a pilot experiment, the wells of a 96-well plate were coated with 4 μg/ml recombinant huCD19 (BioLegend). The wells were washed and then incubated with concentrated supernatant from cells expressing pMHCII-BMiMS, CD80-BMiMS, or both. Naive 5c.c7+CD4+ T cells from 5c.c7 TCR transgenic mice (RagKO) were then incubated for 18 hr in the wells prior to harvesting of the supernatant for measurement of IL-2 by ELISA. No IL-2 was produced by cells cultured in wells with huCD19 only or the huCD19+CD80 BMiMS. IL-2 was produced by T cells cultured in wells with huCD19+pMHCII-BMiMS, and higher levels of IL-2 were produced by T cells cultured in wells coated with huCD19+pMHCII-BMiMS+CD80-BMiMS.
binder,measurement,setting,value
B1,binding result,[1],binds
same,binding result,[2],binds
